Test results as given in CN112225809A.

Target: hPD1/Fc of human IgG1 (fluorescently labelled) (human) (UniProt Q15116)
Test: flow cytometry blocking assay: 100 ng hPD-1/hFc-FITC and antibody on SPC-A1-PDL1 cells

Chain of UniProt Q15116 (Q15116 25-167 limits assumed): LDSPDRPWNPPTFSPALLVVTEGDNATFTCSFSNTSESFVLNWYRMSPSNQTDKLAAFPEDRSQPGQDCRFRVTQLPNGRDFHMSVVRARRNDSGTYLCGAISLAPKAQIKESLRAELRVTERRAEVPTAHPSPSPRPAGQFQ

amount of antibody that blocks the binding of PD-1 to PD-L1: 1.6 µg
B1: hUM1-30 (antibody, human IgG4 S228P, kappa, V domains shown)
VH: EVQLVESGGGLVQPGGSLRLSCAASGFTFSTYGMSWVRQAPGKGLEWVSTISGGGRYTYYPDSVKGRFTISRDNSKNTLYLQMNSLRAEDTAVYYCARQKGTTWFAHWGQGTLVTVSS
VL: DIQMTQSPSSLSASVGDRVTITCRASESVDDNGISFMNWFQQKPGKAPKLLIYAASNQGSGVPSRFSGSGSGTDFTLTISSLQPEDFATYYCQQSKEVPWTFGQGTKVEIKR
